In patent publication US12583886 (KING ABDULLAH UNIVERSITY OF SCIENCE AND TECHNOLOGY, dated 2026):
Each block holds one molecule with its values, some of them ahead of it.

Legend:
[1] = biological target: human PCNA N107C, N-terminally Histidine-tagged, coupled to SulfoLink agarose resin (PCNA-Agarose column) (human) (UniProt P12004); assay: salt-gradient elution from PCNA-Agarose column (N107C PCNA on SulfoLink resin), EMG fit of UV 280 nm peak
[2] = biological target: human PCNA N107C, N-terminally Histidine-tagged, coupled to SulfoLink agarose resin (PCNA-Agarose column) (human) (UniProt P12004); assay: salt-gradient elution from PCNA-Agarose column, empirical cumulative integration
[3] = biological target: T1, human PCNA N107C, N-terminally Histidine-tagged, coupled to SulfoLink agarose resin (PCNA-Agarose column) (human, UniProt P12004 1-261, Cys 107 joined by a thioether bond to the iodoacetyl group of SulfoLink agarose resin); assay: salt-gradient elution from PCNA-Agarose column (N107C PCNA on SulfoLink resin), EMG fit of UV 280 nm peak
T1 construct: Homo-trimeric ring; Immobilised bait on the column; also called N107C-PCNA; Proliferating Cell Nuclear Antigen

[4] = biological target: T1, human PCNA N107C, N-terminally …; assay: salt-gradient elution from PCNA-Agarose column, empirical cumulative integration
Excerpt: Two different methods were used for defining and determining this salt concentration. One method relies on empirical calculations while the second method employs a specific model for the elution peak shape. For both methods, protein elution from the column was monitored by the value recorded by the UV detector at 280 nm. The UV absorption was then plotted on the y-axis versus the NaCl concentration (here denoted as 'c') on the x-axis in the gradient region of each chromatogram. Since linear gradients were used for elution, the conversion is readily feasible from the volume in ml to salt concentration in mM on the x-axis, resulting in direct rescaling of the axis.
A binding assay based on chromatography is presented, where the PCNA-Agarose column is used as an analytical tool. The protein of interest was loaded onto the PCNA-Agarose column at low salt concentration followed by extensive washing with a buffer of an equal ionic strength to remove the non-specifically bound proteins. A salt gradient was applied to the column to elute the bound protein of interest. This gradient region of elution in the chromatogram was used for the subsequent analysis. […] The resulting data points, i.e., UV units versus salt concentrations, were analyzed either by the empirical method of cumulative integration or by fitting the peak profile with an EMG model. […]

T1 sequence (P12004 other isoform, or with tags, fused parts or gaps N107C N107C limits assumed): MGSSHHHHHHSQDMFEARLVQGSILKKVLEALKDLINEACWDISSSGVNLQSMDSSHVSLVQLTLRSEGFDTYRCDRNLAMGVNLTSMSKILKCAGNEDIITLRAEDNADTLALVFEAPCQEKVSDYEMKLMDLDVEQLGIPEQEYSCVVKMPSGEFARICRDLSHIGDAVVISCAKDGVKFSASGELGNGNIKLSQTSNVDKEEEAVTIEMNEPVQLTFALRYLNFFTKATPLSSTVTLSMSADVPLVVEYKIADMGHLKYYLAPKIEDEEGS
human PCNA N107C, N-terminally Histidine-tagged, coupled to SulfoLink agarose resin (PCNA-Agarose column) (human), sequence (P12004 other isoform, or with tags, fused parts or gaps N107C N107C limits assumed): as above

- Elution Peak (mM NaCl, mode of EMG fit) [3]: 340 mM
B2: human p15, N-terminally Histidine- and SUMO-tagged (other, UniProt Q15004 1-111, looked up)
chain: MVRTKADSVPGTYRKVVAARAPRKVLGSSTSATNSTSVSSRKAENKYAGGNPVCVRPTPKWQKGIGEFFRLSPKDSEKENQIPEEAGSSGLGKAKRKACPLQPDHTNDEKE
notes: mature; The PCNA-Agarose column was the first step, so the His- and SUMO-tags were still on the protein; not shown: N-terminal Histidine tag and SUMO tag from the pESUMO pro vector

- median NaCl concentration of elution (50% cumulative elution) [4]: > 400 mM
- Elution Peak (mM NaCl, mode of EMG fit) [3]: 547 mM
B3: human DNA polymerase kappa (Polκ), N-terminally Histidine- and SUMO-tagged (enzyme, UniProt Q9UBT6 1-870, looked up)
chain: MDSTKEKCDSYKDDLLLRMGLNDNKAGMEGLDKEKINKIIMEATKGSRFYGNELKKEKQVNQRIENMMQQKAQITSQQLRKAQLQVDRFAMELEQSRNLSNTIVHIDMDAFYAAVEMRDNPELKDKPIAVGSMSMLSTSNYHARRFGVRAAMPGFIAKRLCPQLIIVPPNFDKYRAVSKEVKEILADYDPNFMAMSLDEAYLNITKHLEERQNWPEDKRRYFIKMGSSVENDNPGKEVNKLSEHERSISPLLFEESPSDVQPPGDPFQVNFEEQNNPQILQNSVVFGTSAQEVVKEIRFRIEQKTTLTASAGIAPNTMLAKVCSDKNKPNGQYQILPNRQAVMDFIKDLPIRKVSGIGKVTEKMLKALGIITCTELYQQRALLSLLFSETSWHYFLHISLGLGSTHLTRDGERKSMSVERTFSEINKAEEQYSLCQELCSELAQDLQKERLKGRTVTIKLKNVNFEVKTRASTVSSVVSTAEEIFAIAKELLKTEIDADFPHPLRLRLMGVRISSFPNEEDRKHQQRSIIGFLQAGNQALSATECTLEKTDKDKFVKPLEMSHKKSFFDKKRSERKWSHQDTFKCEAVNKQSFQTSQPFQVLKKKMNENLEISENSDDCQILTCPVCFRAQGCISLEALNKHVDECLDGPSISENFKMFSCSHVSATKVNKKENVPASSLCEKQDYEAHPKIKEISSVDCIALVDTIDNSSKAESIDALSNKHSKEECSSLPSKSFNIEHCHQNSSSTVSLENEDVGSFRQEYRQPYLCEVKTGQALVCPVCNVEQKTSDLTLFNVHVDVCLNKSFIQELRKDKFNPVNQPKESSRSTGSSSGVQKAVTRTKRPGLMTKYSTSKKIKPNNPKHTLDIFFK
notes: mature; The SUMO tag was removed only after the PCNA-Agarose step; also called Polk; not shown: N-terminal Histidine tag and SUMO tag from the pESUMO pro vector

Second part, the molecule before the results:

Molecule: human DNA polymerase delta (Polδ), four-subunit complex p125/p50/p68/p12 expressed in Sf9 insect cells (from UniProt P28340 1-1107; P49005 1-469; Q15054 1-466; Q9HCU8 1-107) (enzyme)
- Elution Peak (mM NaCl, mode of EMG fit) [1]: 534 mM
- median NaCl concentration of elution (50% cumulative elution) [2]: > 400 mM

B1: human DNA polymerase iota (Polι), N-terminally Histidine- and SUMO-tagged (enzyme, UniProt Q9UNA4 1-740, looked up)
chain: MEKLGVEPEEEGGGDDDEEDAEAWAMELADVGAAASSQGVHDQVLPTPNASSRVIVHVDLDCFYAQVEMISNPELKDKPLGVQQKYLVVTCNYEARKLGVKKLMNVRDAKEKCPQLVLVNGEDLTRYREMSYKVTELLEEFSPVVERLGFDENFVDLTEMVEKRLQQLQSDELSAVTVSGHVYNNQSINLLDVLHIRLLVGSQIAAEMREAMYNQLGLTGCAGVASNKLLAKLVSGVFKPNQQTVLLPESCQHLIHSLNHIKEIPGIGYKTAKCLEALGINSVRDLQTFSPKILEKELGISVAQRIQKLSFGEDNSPVILSGPPQSFSEEDSFKKCSSEVEAKNKIEELLASLLNRVCQDGRKPHTVRLIIRRYSSEKHYGRESRQCPIPSHVIQKLGTGNYDVMTPMVDILMKLFRNMVNVKMPFHLTLLSVCFCNLKALNTAKKGLIDYYLMPSLSTTSRSGKHSFKMKDTHMEDFPKDKETNRDFLPSGRIESTRTRESPLDTTNFSKEKDINEFPLCSLPEGVDQEVFKQLPVDIQEEILSGKSREKFQGKGSVSCPLHASRGVLSFFSKKQMQDIPINPRDHLSSSKQVSSVSPCEPGTSGFNSSSSSYMSSQKDYSYYLDNRLKDERISQGPKEPQGFHFTNSNPAVSAFHSFPNLQSEQLFSRNHTTDSHKQTVATDSHEGLTENREPDSVDEKITFPSDIDPQVFYELPEAVQKELLAEWKRAGSDFHIGHK
notes: mature; The SUMO tag was removed only after the PCNA-Agarose step; also called Polt; Poli; not shown: N-terminal Histidine tag and SUMO tag from the pESUMO pro vector
- Elution Peak (mM NaCl, mode of EMG fit) [3]: 359 mM

B4: human DNA polymerase eta (Polη), native after SUMO protease digestion (enzyme, UniProt Q9Y253 1-713, looked up)
chain: MATGQDRVVALVDMDCFFVQVEQRQNPHLRNKPCAVVQYKSWKGGGIIAVSYEARAFGVTRSMWADDAKKLCPDLLLAQVRESRGKANLTKYREASVEVMEIMSRFAVIERASIDEAYVDLTSAVQERLQKLQGQPISADLLPSTYIEGLPQGPTTAEETVQKEGMRKQGLFQWLDSLQIDNLTSPDLQLTVGAVIVEEMRAAIERETGFQCSAGISHNKVLAKLACGLNKPNRQTLVSHGSVPQLFSQMPIRKIRSLGGKLGASVIEILGIEYMGELTQFTESQLQSHFGEKNGSWLYAMCRGIEHDPVKPRQLPKTIGCSKNFPGKTALATREQVQWWLLQLAQELEERLTKDRNDNDRVATQLVVSIRVQGDKRLSSLRRCCALTRYDAHKMSHDAFTVIKNCNTSGIQTEWSPPLTMLFLCATKFSASAPSSSTDITSFLSSDPSSLPKVPVTSSEAKTQGSGPAVTATKKATTSLESFFQKAAERQKVKEASLSSLTAPTQAPMSNSPSKPSLPFQTSQSTGTEPFFKQKSLLLKQKQLNNSSVSSPQQNPWSNCKALPNSLPTEYPGCVPVCEGVSKLEESSKATPAEMDLAHNSQSMHASSASKSVLEVTQKATPNPSLLAAEDQVPCEKCGSLVPVWDMPEHMDYHFALELQKSFLQPHSSNPQVVSAVSHQGKRNPKSPLACTNKRPRPEGMQTLESFFKPLTH
notes: mature; also called Poln
- median NaCl concentration of elution (50% cumulative elution) [4]: > 400 mM
- Elution Peak (mM NaCl, mode of EMG fit) [3]: 513 mM
